This experiment addresses T1, CC CKR3 stably expressed on HEK-293 cells (Example 10A) (human, UniProt P51677 1-355).
T1 sequence (looked up): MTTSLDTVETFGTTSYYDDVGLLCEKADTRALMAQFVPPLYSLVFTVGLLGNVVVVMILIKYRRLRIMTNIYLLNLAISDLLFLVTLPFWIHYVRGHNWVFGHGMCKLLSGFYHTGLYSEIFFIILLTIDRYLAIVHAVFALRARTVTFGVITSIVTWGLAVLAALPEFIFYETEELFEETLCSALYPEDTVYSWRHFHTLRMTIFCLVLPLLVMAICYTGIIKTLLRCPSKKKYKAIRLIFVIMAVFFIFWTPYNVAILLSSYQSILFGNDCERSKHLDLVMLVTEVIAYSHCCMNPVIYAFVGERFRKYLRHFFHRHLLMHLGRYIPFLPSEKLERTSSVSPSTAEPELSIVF
The experiment can be described thus: cell-based or functional assay.

B1: recombinant human MCP-4 with the mature N-terminal Gln (PeproTech) (ligand)
chain: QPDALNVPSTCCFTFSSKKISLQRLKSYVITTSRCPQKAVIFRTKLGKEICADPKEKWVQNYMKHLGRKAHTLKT
Consider B1, for which the “EC50 of calcium flux relative to eotaxin at CKR3” value was around 2 fold.
